Experimental data reported in PMC11009875.

Tests used:
[1] = target: microtubules (bovine tubulin, Taxol-stabilised) (bovine) (UniProt Q6B856); assay: optical trapping, unloaded single molecule bead assay with video tracking
[2] = target: microtubules (bovine tubulin, Taxol-stabilised) (bovine) (UniProt Q6B856); assay: optical trapping, rupture assay
[3] = target: subtilisin-digested microtubules (E-hook removed) (bovine) (UniProt Q6B856); assay: optical trapping, rupture assay

Sequence of UniProt Q6B856 (Q6B856 whole entry, looked up): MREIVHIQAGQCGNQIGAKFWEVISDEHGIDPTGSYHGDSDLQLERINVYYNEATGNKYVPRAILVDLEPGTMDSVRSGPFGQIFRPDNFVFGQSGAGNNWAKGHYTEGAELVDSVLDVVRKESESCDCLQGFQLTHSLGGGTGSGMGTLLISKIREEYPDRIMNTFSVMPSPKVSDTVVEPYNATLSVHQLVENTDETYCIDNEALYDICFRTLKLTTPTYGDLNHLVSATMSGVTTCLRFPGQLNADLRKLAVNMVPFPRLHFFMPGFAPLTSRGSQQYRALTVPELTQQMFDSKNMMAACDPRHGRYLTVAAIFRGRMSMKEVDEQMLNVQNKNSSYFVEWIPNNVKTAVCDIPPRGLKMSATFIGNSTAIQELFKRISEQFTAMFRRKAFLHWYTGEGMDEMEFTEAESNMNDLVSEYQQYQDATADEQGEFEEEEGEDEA

Row | Binder | percent of beads binding [1] | bond lifetime (double Gaussian, first population) [2] | bond lifetime (double Gaussian, second population) [2] | force at rupture (first population) [2] | force at rupture (second population) [2] | lifetime time constant k^-1 (single exponential fit) [2] | bond lifetime (single Gaussian) [3]
1 | FL-HSET (full-length kinesin-14 HSET/KIFC1) (natural protein) MDPQRSPLLEVKGNIELKRPLIKAPSQLPLSGSRLKRRPDQMEDGLEPEKKRTRGLGATTKITTSHPRVPSLTTVPQTQGQTTAQKVSKKTGPRCSTAIATGLKNQKPVPAVPVQKSGTSGVPPMAGGKKPSKRPAWDLKGQLCDLNAELKRCRERTQTLDQENQQLQDQLRDAQQQVKALGTERTTLEGHLAKVQAQAEQGQQELKNLRACVLELEERLSTQEGLVQELQKKQVELQEERRGLMSQLEEKERRLQTSEAALSSSQAEVASLRQETVAQAALLTEREERLHGLEMERRRLHNQLQELKGNIRVFCRVRPVLPGEPTPPPGLLLFPSGPGGPSDPPTRLSLSRSDERRGTLSGAPAPPTRHDFSFDRVFPPGSGQDEVFEEIAMLVQSALDGYPVCIFAYGQTGSGKTFTMEGGPGGDPQLEGLIPRALRHLFSVAQELSGQGWTYSFVASYVEIYNETVRDLLATGTRKGQGGECEIRRAGPGSEELTVTNARYVPVSCEKEVDALLHLARQNRAVARTAQNERSSRSHSVFQLQISGEHSSRGLQCGAPLSLVDLAGSERLDPGLALGPGERERLRETQAINSSLSTLGLVIMALSNKESHVPYRNSKLTYLLQNSLGGSAKMLMFVNISPLEENVSESLNSLRFASKVNQCVIGTAQANRK | 11% | – | – | – | – | – | –
2 | HSET-ΔM (no motor; EGFP-HSET aa 1-304, tail-stalk) (domain or fragment) MDPQRSPLLEVKGNIELKRPLIKAPSQLPLSGSRLKRRPDQMEDGLEPEKKRTRGLGATTKITTSHPRVPSLTTVPQTQGQTTAQKVSKKTGPRCSTAIATGLKNQKPVPAVPVQKSGTSGVPPMAGGKKPSKRPAWDLKGQLCDLNAELKRCRERTQTLDQENQQLQDQLRDAQQQVKALGTERTTLEGHLAKVQAQAEQGQQELKNLRACVLELEERLSTQEGLVQELQKKQVELQEERRGLMSQLEEKERRLQTSEAALSSSQAEVASLRQETVAQAALLTEREERLHGLEMERRRLHNQL | – | 0.29 s | 1 s | 2.1 pN | 5.6 pN | 0.23 s | 0.22 s
